# Biological target: Streptococcus pyogenes Cas9 (SpCas9) protein, wild type (Streptococcus pyogenes) (UniProt Q99ZW2)
substance,measurement,value
M13 phage major coat protein G8P periplasmic domain peptide (M13 G8PPD),"inhibition of the in vitro DNA cleavage activity of 50 nM SpCas9, peptide added before sgRNA (IC50)",5 µM
